Experimental findings from the domain aggregation screens of Martell et al. (2025) are described below.

The data set in a line: soluble fraction after stress (log2 fold change); higher = more stays soluble; pooled small domains, quantitative proteomics. The following applies: stress: 50 degC. The gist of the method:
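Custom libraries of small protein domains were pooled and measured in a high-throughput format, with quantitative proteomics as the read-out. Each library was stressed at 50°C. The value is the log2 fold change in the amount of each protein that stays soluble after stress, used as a measure of aggregation propensity; higher values mean more of the protein stays soluble.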
For the sequence “HMEFQISLAAARVNANMTQEDTARAMKVSKTTIVNWEKGKVIPGIPEVEMMSRLYGIPQDYIFLP”, the “soluble fraction (log2)” value is -3.2.
Regarding “HMEFSYLEEIGHEKGDLIKGLQLIQQKEGYVSDDAVRAVAENFGMSPAEVEGVLTFYAQFKR”, the “soluble fraction (log2)” value is -0.061.
For the sequence “HMEGFKSVYFLTTPSGAEISDRSVGDIISKTPSLVSAQEGTEFEFNLKGYQPSFYMINKRSPDRVFVELIP”, the “soluble fraction (log2)” value is -0.535.
For “HMEGLEKDDGGYYFEKDNGERARNEWVYVEYEGKGYWYYMTDYGYPLRSAITPDGYKVNSNGHWIDEGN”, the “soluble fraction (log2)” value is -0.825.
For the sequence “HMEGLESVVPDLRGKSLKSAAIAAGLSGFALSPEGSGIVYKQSPAPGGRYLKGTLIAVWLRT”, the “soluble fraction (log2)” value is -0.513.
In the case of “HMEGMQATVTQITDEGITVRYVMNGQMVTRTLTSDEVAFVNRGQAVSDLAGAYRVGQTVWIY”, the “soluble fraction (log2)” value is -0.0401.
Regarding “HMEGNAFASTGDPEADILDITAVHPMRRDAVEELLARSGAEWSLVEGMLRDGKITMAPWEGEEFFIRS”, the “soluble fraction (log2)” value came out at 0.0467.
Consider “HMEGNWGLWAKVPNRFAALTTDKDSALRRFKSKEDGEAWMASHGLKPERFDVLEIPADYKPA”, for which the “soluble fraction (log2)” value came out at 0.0433.
On to “HMEGRHFRILYILLNNERVTAPELAEEFGVSVRTIYRDIDTMSAAGIPIYMQGGRKGGIYLLEGY”, for which the “soluble fraction (log2)” value was -1.16.
For “HMEGSRASMDGQVPGKTSYLEWLARQPAQRQDQVLGAERGRLFRAGEIDLADMFTDKGEWISLERLKQLS”, the “soluble fraction (log2)” value was found to be 0.221.
To “HMEGVSNLIVSVTRVKVTVDLSQAKVYLSIFPSEQAAFYLNALQQNRFQLKHDLSQLLKNQLRRIPTLQF” belongs 0.283.
For “HMEHDYGLSGREREVLELMVQGLVKKEIADRLALSYHTVDNHLRSIYAKLQVHTRGGAVAKALSEHLVPP”, the “soluble fraction (log2)” value was 0.217.
In the case of “HMEHGQWLSEAQGASLAADWLARRRGVLPLNARRHLSGLSDQIARQIEGGLSREAGLYTAHEMMESLDP”, the “soluble fraction (log2)” value is -0.224.
Regarding “HMEHNDPEVERTMFQGLEALKLQLFEKAFGHFSLLIKLAPDYAEAWNKRATVLYLMGRFKESESDVMRTLE”, the “soluble fraction (log2)” value was 0.0585.
Take “HMEHQLLHMEKTIFEEIADDYPQLNHTKIRNVLAAFLFTNDDVFKRIADLSGGERGRVSLAKLMLSDA”: the “soluble fraction (log2)” value was -0.188.
Regarding “HMEHTPYLTEREADVVRLLVSGLDTAQIAQRLGIKTATVTAHKKHIFLKIGVRNTTQLVAWALIR”, the “soluble fraction (log2)” value is -2.34.
As for “HMEIELHNLALNIKEFRKKNKLSQAELAEKLGVARTTIGYYERAEVEPNIYTLVQLSKLMNRSIDSLLGL”, the figure is -1.3.
In the case of “HMEIFYGDDRVYTVSLHGQNNFPFRKKTSDFDYGFEDGTGDEEYLRVLDVTLSRLENEQFDLLFFQAGV”, the “soluble fraction (log2)” value was -0.203.
As to “HMEIFYSARAWAKLNDLVATRTYLQHLGAIAGRIGRSEGLSPDRIPDGRDGAVNGWPLWVWDRAYAEVS”, the “soluble fraction (log2)” value was -2.89.
For “HMEIGLIRVDSRLIHGQVITKWLNYSKANVIVVVDDELSKDSFMSEIYKASAPNGIIVEILSIDDFMKNT”, the “soluble fraction (log2)” value was 0.00544.
On to “HMEIHIGSLIKEKMEERGLSVSDFAHALHYERTNIYKIFKRSSIDVDLLLRISEVLAYDFLREVYL”, for which the “soluble fraction (log2)” value was -2.63.
For “HMEINKLIELIGGYKALSEVLNVSKSAISNYKKRGSLPSYAIPIIVKELKSKGISIDLSEFT”, the “soluble fraction (log2)” value was -0.66.
As to “HMEISAIIGNNLQQLRKEQGLSLDQLALKTGVSKAVLSQLENGKANPTINTIWKIATALHVTYSALLEPP”, the “soluble fraction (log2)” value was -0.391.
Take “HMEISEILNPPLVTAMAERYPEVDVSYYRDKYILYYESREHKITDHRRNFEKWLLVESQKEEN”: the “soluble fraction (log2)” value was -1.07.
To “HMEISTENESFSNGLLEHPHYTRPPVWEDLKIPAVLMSGHHGKVAEWRKQQSEALTQERRPDLWEAFG” belongs -0.0409; to “HMEITSSNELKKMISNLINSENKNNPISDSNIVEKLKENDFLVARRTVAKYRKLLGIKNVNQRKE”, -0.112.
As for “HMEIYELTDQEQRVLEFIGEGMTNREIAKNMFLAEKTVKNYVSSLLRKLGLERRTQAAAMAVRLSV”, the figure is -0.0994; as for “HMEKAYVWTDTRTFDVQNYIGKKKSEVKNDQYGFEFLGEGDYVIDQLPRVGEQIEEGQKVKIMLGNQQEI”, 0.0468; as for “HMEKDKGTILKEARIKKGLTQEQLANNINYTRQYISKWENNISLPKDIQTLKKISNLLSIPLKELLPEDYL”, -0.109.
For “HMEKEFLFNGGKVVMNYEADRIQIMHDTKPGQDVITLMKKNGFKWSPFNKAWQRQITANAIYTTKHLINQ”, the “soluble fraction (log2)” value was -1.5.
Turning to “HMEKGIVSNKTDKGYGFIRSSTGESIFVHINNVGKEAYEQLAKGSRVLFDYEVTDRGKRATKVMLEPSES”, the “soluble fraction (log2)” value was determined as 0.0488.
Regarding “HMEKGLQYRRTDRAIMNAFIKLVNQGSFEKLTVQEILDEALVSRNTFYAHYRDIYDLMDALSN”, the “soluble fraction (log2)” value was -1.55.
As to “HMEKIDEDIMDVLKKKAEVSGISLGVLKSIYEKAVKQYKLGHEIGQVKEQYAMQKVNTHLLENK”, the “soluble fraction (log2)” value is 0.194.
For the sequence “HMEKIDYLSIGHRLRAYRIASSLKAEDVAESLGISRAAVYRLEKGEIVKIETLDNLARLLNTSLSSLLG”, the “soluble fraction (log2)” value was -2.94.
With “HMEKIKNLTVTEFNLIANKNPSGSYDRITREALLHIIHKLESSYEAHTDLERKLFYKFRKAKFNAL”, the “soluble fraction (log2)” value is -1.91.
Turning to “HMEKIYLISDAAKQVNVEAHVLRYWEEELDIPAKRNELGHRYYTQEDIETFRKVKELKAQGIQLKGIKNIL”, the “soluble fraction (log2)” value is 0.123.
For the sequence “HMEKLLTTRQSQIFELAKRKGYWNIPREISITQLAQLTGSSKSTISVMLHAIESKIVDTFYDEI”, the “soluble fraction (log2)” value was -3.2.
With “HMEKLNERLLYLRKNANLTQQQLADKLHISNKTISQWETGRTLPDIVMLVRLAEIYDMKLDELLNQ”, the “soluble fraction (log2)” value was -0.29.
As for “HMEKMLENIDLKAAVEALPEREKKVILLRYYRGMTQDAAAKVMKVSQVQISRIEKRAIEILREKL”, the figure is -1.52; as for “HMEKNKERIAFLKKRLEMYYEAEEKILQGQSYTIGSRTLTRTSLANVQSKIKELESEISALETRGN”, -0.57; as for “HMEKRIIMLEELKKQVYEANMELPRRGLITYTWGNVSGIDRESGNFVIKPSGVDYDKLKPEDMVVMDL”, -0.0887.
Turning to “HMEKRRQEIVELVKRESEISFAELKQHFPEVSEVTLRKDLKYLDSTLQIIRIHGGAKSLPAAI”, the “soluble fraction (log2)” value is -0.362.
For the sequence “HMEKTTTLFDETTNPGIIYIGKAMPTGSAISEAAAVWAIKTIDTTTDTEIKWADGVTTYTKVWNNRASYSY”, the “soluble fraction (log2)” value was -1.76.
For the sequence “HMEKVDAISQSILDVLKKNNGYLAVTDKSDPDEIYGLFQISKKTFKKAIGSLYRDRLISIEEEGIRLR”, the “soluble fraction (log2)” value turned out to be 0.116.
To “HMEKVTAPMPGVINSIVKNVGDTVKRGDVVLILEAMKMENEIVAPKEGKIASINVAKGASVNAGDVLFSI” belongs 0.294; to “HMEKVTPEMIAEYNALAKKYNSNPEVVFKKKEIQRLKYIYSLMSEKQKETAEVFPNIPPPPPT”, -0.234; to “HMEKYNIIVDNEDNFRLDKIIALNMKDLSRTMIQEMINRGLVSVNGKITKASYKTKLNDQIEIMIED”, -0.28.
As for “HMELAALKILNSPIGKIAIGTSENGLVKLDILTSGQTRAEFSDLPKAHKLALDAADQLAAYF”, the figure is 0.0579.
Turning to “HMELADNFAKLILTARESKGWTQAQLGQRMAETINVIKSAESGKPPADSVIRKFEMILGIELM”, the “soluble fraction (log2)” value was -1.96.
For “HMELDFLRLQIITGIHSGRLSNNEILMMYDTYSQKGGNSYVSRIVNDYVDENNIKEEGKRNARK”, the “soluble fraction (log2)” value is -0.346.
